Experimental data reported in publication PMC9283966.

Columns and labels:
Conditions in all cases: glycan lost
[1] = chromogenic anti-FXa assay, recombinant protein
[2] = Western blot of conditioned medium
[3] = Western blot of thrombin-antithrombin complexes
[4] = control: β antithrombin (Ala169)
[5] = control: wild type (Ser169 background)

antithrombin: His224 in β background
other: protease inhibitory activity, other: anti-FXa activity [1, 4]: abolishes | expression_or_secretion [2, 4]: decreases | other: protease inhibitory activity [3, 4]: abolishes

antithrombin: p.Asn224His
other: protease inhibitory activity, other: anti-FXa activity [1, 5]: no change, 1.38 vs 1.39 | expression_or_secretion [2, 5]: decreases | other: protease inhibitory activity [3, 5]: no change
